For test [1], the target named is T1, FcγRIIIa extracellular domain with C-terminal His tag (human, UniProt P08637 17-208).
T1 construct: extracellular domain; also called 3a; FcgRIIIa; not shown: His tag at the C terminus
The test is described as follows: SPR (Biacore), relative to GpH7-A5/GpH7-B3/GpL16-k0 = 100.

Test [2] addresses T2, FcγRIIb extracellular domain with C-terminal His tag (human, UniProt P31994 43-217).
T2 construct: extracellular domain; also called 2b; FcgRIIb; not shown: His tag at the C terminus
T2 sequence (looked up): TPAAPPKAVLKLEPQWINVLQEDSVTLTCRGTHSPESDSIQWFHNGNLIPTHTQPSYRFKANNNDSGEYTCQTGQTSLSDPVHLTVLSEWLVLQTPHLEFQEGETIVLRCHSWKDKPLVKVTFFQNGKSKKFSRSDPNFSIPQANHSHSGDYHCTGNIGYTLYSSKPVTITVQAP
Described as above.

Our source for the He/Con_3a and He/Con_2b values is patent US20150344570A1 (published 2015).

T1 sequence (P08637 17-208): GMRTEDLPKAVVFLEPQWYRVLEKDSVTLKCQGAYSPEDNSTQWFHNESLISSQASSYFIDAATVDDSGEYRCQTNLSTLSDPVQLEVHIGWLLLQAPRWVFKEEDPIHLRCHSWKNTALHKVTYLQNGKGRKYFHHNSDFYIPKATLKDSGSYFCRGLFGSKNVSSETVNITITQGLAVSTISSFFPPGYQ

B1: GpH7-A5/GpH7-B3 variant K326_20W/GpL16-k0 (antibody, human IgG1, kappa)
heavy 1: not shown
heavy 2: not shown
light: DIVMTQSPLSLPVTPGEPASISCQASESLVHSNRNTYLHWYLQKPGQSPQLLIYKVSNRFSGVPDRFSGSGSGTDFTLKISRVEAEDVGVYYCSQNTHVPPTFGQGTKVEIERTVAAPSVFIFPPSDEQLKSGTASVVCLLNNFYPREAKVQWKVDNALQSGNSQESVTEQDSKDSTYSLSSTLTLSKADYEKHKVYACEVTHQGLSSPVTKSFNRGEC
notes: IgG1, anti-glypican-3; also called He Ab
Regarding B1, the He/Con_3a in test [1] is 84.8 % (control = 100). Further, the He/Con_2b in test [2] is 148 % (control = 100).

B2: GpH7-A5/GpH7-B3 variant P238_19Q/GpL16-k0 (antibody, human IgG1, kappa)
heavy 1: not shown
heavy 2: not shown
light: DIVMTQSPLSLPVTPGEPASISCQASESLVHSNRNTYLHWYLQKPGQSPQLLIYKVSNRFSGVPDRFSGSGSGTDFTLKISRVEAEDVGVYYCSQNTHVPPTFGQGTKVEIERTVAAPSVFIFPPSDEQLKSGTASVVCLLNNFYPREAKVQWKVDNALQSGNSQESVTEQDSKDSTYSLSSTLTLSKADYEKHKVYACEVTHQGLSSPVTKSFNRGEC
notes: as for B1
On to B2, for which the He/Con_3a in test [1] is 55.8 % (control = 100). The He/Con_2b in test [2] is 110 % (control = 100).

B3: GpH7-A5/GpH7-B3 variant P238_16H/GpL16-k0 (antibody, human IgG1, kappa)
heavy 1: not shown
heavy 2: not shown
light: DIVMTQSPLSLPVTPGEPASISCQASESLVHSNRNTYLHWYLQKPGQSPQLLIYKVSNRFSGVPDRFSGSGSGTDFTLKISRVEAEDVGVYYCSQNTHVPPTFGQGTKVEIERTVAAPSVFIFPPSDEQLKSGTASVVCLLNNFYPREAKVQWKVDNALQSGNSQESVTEQDSKDSTYSLSSTLTLSKADYEKHKVYACEVTHQGLSSPVTKSFNRGEC
notes: as for B1
Take B3: the He/Con_3a in test [1] is 30.7 % (control = 100). Also, the He/Con_2b in test [2] was 115 % (control = 100).

B4: GpH7-A5/GpH7-B3 variant P271_10E/GpL16-k0 (antibody, human IgG1, kappa)
heavy 1: not shown
heavy 2: not shown
light: DIVMTQSPLSLPVTPGEPASISCQASESLVHSNRNTYLHWYLQKPGQSPQLLIYKVSNRFSGVPDRFSGSGSGTDFTLKISRVEAEDVGVYYCSQNTHVPPTFGQGTKVEIERTVAAPSVFIFPPSDEQLKSGTASVVCLLNNFYPREAKVQWKVDNALQSGNSQESVTEQDSKDSTYSLSSTLTLSKADYEKHKVYACEVTHQGLSSPVTKSFNRGEC
notes: as for B1
As for B4, in test [1], the He/Con_3a was 93.6 % (control = 100). In addition, the He/Con_2b in test [2] is 109 % (control = 100).

B5: GpH7-A5/GpH7-B3 variant P238_06M/GpL16-k0 (antibody, human IgG1, kappa)
heavy 1: not shown
heavy 2: not shown
light: DIVMTQSPLSLPVTPGEPASISCQASESLVHSNRNTYLHWYLQKPGQSPQLLIYKVSNRFSGVPDRFSGSGSGTDFTLKISRVEAEDVGVYYCSQNTHVPPTFGQGTKVEIERTVAAPSVFIFPPSDEQLKSGTASVVCLLNNFYPREAKVQWKVDNALQSGNSQESVTEQDSKDSTYSLSSTLTLSKADYEKHKVYACEVTHQGLSSPVTKSFNRGEC
notes: as for B1
B5: the He/Con_3a in test [1] was 30.5 % (control = 100). Also, in test [2], the He/Con_2b was 174 % (control = 100).

B6: GpH7-A5/GpH7-B3 variant P238_03V/GpL16-k0 (antibody, human IgG1, kappa)
heavy 1: not shown
heavy 2: not shown
light: DIVMTQSPLSLPVTPGEPASISCQASESLVHSNRNTYLHWYLQKPGQSPQLLIYKVSNRFSGVPDRFSGSGSGTDFTLKISRVEAEDVGVYYCSQNTHVPPTFGQGTKVEIERTVAAPSVFIFPPSDEQLKSGTASVVCLLNNFYPREAKVQWKVDNALQSGNSQESVTEQDSKDSTYSLSSTLTLSKADYEKHKVYACEVTHQGLSSPVTKSFNRGEC
notes: as for B1
For the molecule B6, in test [1], the He/Con_3a is 43.8 % (control = 100). Moreover, in test [2], the He/Con_2b was 120 % (control = 100).

B7: GpH7-A5/GpH7-B3 variant P271_09D/GpL16-k0 (antibody, human IgG1, kappa)
heavy 1: not shown
heavy 2: not shown
light: DIVMTQSPLSLPVTPGEPASISCQASESLVHSNRNTYLHWYLQKPGQSPQLLIYKVSNRFSGVPDRFSGSGSGTDFTLKISRVEAEDVGVYYCSQNTHVPPTFGQGTKVEIERTVAAPSVFIFPPSDEQLKSGTASVVCLLNNFYPREAKVQWKVDNALQSGNSQESVTEQDSKDSTYSLSSTLTLSKADYEKHKVYACEVTHQGLSSPVTKSFNRGEC
notes: as for B1
In the case of B7, the He/Con_3a in test [1] is 93.1 % (control = 100). Further, the He/Con_2b in test [2] is 120 % (control = 100).

B8: GpH7-A5/GpH7-B3 variant P238_04F/GpL16-k0 (antibody, human IgG1, kappa)
heavy 1: not shown
heavy 2: not shown
light: DIVMTQSPLSLPVTPGEPASISCQASESLVHSNRNTYLHWYLQKPGQSPQLLIYKVSNRFSGVPDRFSGSGSGTDFTLKISRVEAEDVGVYYCSQNTHVPPTFGQGTKVEIERTVAAPSVFIFPPSDEQLKSGTASVVCLLNNFYPREAKVQWKVDNALQSGNSQESVTEQDSKDSTYSLSSTLTLSKADYEKHKVYACEVTHQGLSSPVTKSFNRGEC
notes: as for B1
For the molecule B8, the He/Con_3a in test [1] was 46.7 % (control = 100). In addition, the He/Con_2b in test [2] is 312 % (control = 100).

B9: GpH7-A5/GpH7-B3 variant L235_09D/GpL16-k0 (antibody, human IgG1, kappa)
heavy 1: not shown
heavy 2: not shown
light: DIVMTQSPLSLPVTPGEPASISCQASESLVHSNRNTYLHWYLQKPGQSPQLLIYKVSNRFSGVPDRFSGSGSGTDFTLKISRVEAEDVGVYYCSQNTHVPPTFGQGTKVEIERTVAAPSVFIFPPSDEQLKSGTASVVCLLNNFYPREAKVQWKVDNALQSGNSQESVTEQDSKDSTYSLSSTLTLSKADYEKHKVYACEVTHQGLSSPVTKSFNRGEC
notes: as for B1
Turning to B9, in test [1], the He/Con_3a was 91.6 % (control = 100). Moreover, the He/Con_2b in test [2] is 106 % (control = 100).

B10: GpH7-A5/GpH7-B3 variant N325_01G/GpL16-k0 (antibody, human IgG1, kappa)
heavy 1: not shown
heavy 2: not shown
light: DIVMTQSPLSLPVTPGEPASISCQASESLVHSNRNTYLHWYLQKPGQSPQLLIYKVSNRFSGVPDRFSGSGSGTDFTLKISRVEAEDVGVYYCSQNTHVPPTFGQGTKVEIERTVAAPSVFIFPPSDEQLKSGTASVVCLLNNFYPREAKVQWKVDNALQSGNSQESVTEQDSKDSTYSLSSTLTLSKADYEKHKVYACEVTHQGLSSPVTKSFNRGEC
notes: as for B1
In the case of B10, in test [1], the He/Con_3a is 28 % (control = 100). Besides, the He/Con_2b in test [2] was 101 % (control = 100).

B11: GpH7-A5/GpH7-B3 variant P238_20W/GpL16-k0 (antibody, human IgG1, kappa)
heavy 1: not shown
heavy 2: not shown
light: DIVMTQSPLSLPVTPGEPASISCQASESLVHSNRNTYLHWYLQKPGQSPQLLIYKVSNRFSGVPDRFSGSGSGTDFTLKISRVEAEDVGVYYCSQNTHVPPTFGQGTKVEIERTVAAPSVFIFPPSDEQLKSGTASVVCLLNNFYPREAKVQWKVDNALQSGNSQESVTEQDSKDSTYSLSSTLTLSKADYEKHKVYACEVTHQGLSSPVTKSFNRGEC
notes: as for B1
Turning to B11, the He/Con_3a in test [1] was 49.7 % (control = 100). In addition, the He/Con_2b in test [2] was 123 % (control = 100).

B12: GpH7-A5/GpH7-B3 variant P238_15Y/GpL16-k0 (antibody, human IgG1, kappa)
heavy 1: not shown
heavy 2: not shown
light: DIVMTQSPLSLPVTPGEPASISCQASESLVHSNRNTYLHWYLQKPGQSPQLLIYKVSNRFSGVPDRFSGSGSGTDFTLKISRVEAEDVGVYYCSQNTHVPPTFGQGTKVEIERTVAAPSVFIFPPSDEQLKSGTASVVCLLNNFYPREAKVQWKVDNALQSGNSQESVTEQDSKDSTYSLSSTLTLSKADYEKHKVYACEVTHQGLSSPVTKSFNRGEC
notes: as for B1
For B12, the He/Con_3a in test [1] was 64.5 % (control = 100). The He/Con_2b in test [2] is 218 % (control = 100).

B13: GpH7-A5/GpH7-B3 variant P271_08L/GpL16-k0 (antibody, human IgG1, kappa)
heavy 1: not shown
heavy 2: not shown
light: DIVMTQSPLSLPVTPGEPASISCQASESLVHSNRNTYLHWYLQKPGQSPQLLIYKVSNRFSGVPDRFSGSGSGTDFTLKISRVEAEDVGVYYCSQNTHVPPTFGQGTKVEIERTVAAPSVFIFPPSDEQLKSGTASVVCLLNNFYPREAKVQWKVDNALQSGNSQESVTEQDSKDSTYSLSSTLTLSKADYEKHKVYACEVTHQGLSSPVTKSFNRGEC
notes: as for B1
Take B13: the He/Con_3a in test [1] is 71 % (control = 100). Besides, in test [2], the He/Con_2b is 103 % (control = 100).

B14: GpH7-A5/GpH7-B3 variant P238_08L/GpL16-k0 (antibody, human IgG1, kappa)
heavy 1: not shown
heavy 2: not shown
light: DIVMTQSPLSLPVTPGEPASISCQASESLVHSNRNTYLHWYLQKPGQSPQLLIYKVSNRFSGVPDRFSGSGSGTDFTLKISRVEAEDVGVYYCSQNTHVPPTFGQGTKVEIERTVAAPSVFIFPPSDEQLKSGTASVVCLLNNFYPREAKVQWKVDNALQSGNSQESVTEQDSKDSTYSLSSTLTLSKADYEKHKVYACEVTHQGLSSPVTKSFNRGEC
notes: as for B1
Regarding B14, the He/Con_3a in test [1] is 75.5 % (control = 100). For the same molecule, the He/Con_2b in test [2] is 204 % (control = 100).
